Measurements published in PMC5508000, “Identification of the Components Involved in Cyclic Di-AMP Signaling in Mycoplasma pneumoniae” (Frontiers in Microbiology, 2017).

Tests used:
KtrC (MPN461) = biological target: T1, KtrC (MPN461) (Mycoplasmoides pneumoniae, UniProt P75322); assay: pull-down on c-di-AMP agarose, elution with free c-di-AMP, MS identification; assay type: binding; details: labelled compound: immobilised 2'-AHC-c-di-AMP agarose, eluted with 1 mM free c-di-AMP; cell extract; pH 7.5, 4 °C
T1 construct: gene MPN_461; native protein from M. pneumoniae cell extract, identified by mass spectrometry
T1 sequence (P75322 1-231): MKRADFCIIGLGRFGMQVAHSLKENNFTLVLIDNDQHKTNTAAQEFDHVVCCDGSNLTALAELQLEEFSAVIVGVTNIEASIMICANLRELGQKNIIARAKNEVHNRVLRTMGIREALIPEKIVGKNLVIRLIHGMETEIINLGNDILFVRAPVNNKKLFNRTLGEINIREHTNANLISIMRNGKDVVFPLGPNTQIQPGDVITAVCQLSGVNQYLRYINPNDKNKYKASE

[1] = tested on: O=[N+]([O-])c1ccc(OP(=O)(O)Oc2ccc([N+](=O)[O-])cc2)cc1; assay: OD410 nitrophenol release, microplate; assay type: biochemical, Mycoplasmoides pneumoniae; details: MnCl2 0.1 mM, 100 mM Tris-HCl pH 8.3, 10 mM NaCl, 37 °C
Text: OD410 nitrophenol release, microplate on MPN549 (PdeM)

[2] = substrate: O=[N+]([O-])c1ccc(OP(=O)(O)Oc2ccc([N+](=O)[O-])cc2)cc1; assay: OD410 nitrophenol release, microplate; assay type: biochemical, Bacillus subtilis; details: MnCl2 0.1 mM, 100 mM Tris-HCl pH 8.3, 10 mM NaCl, 37 °C
Text: OD410 nitrophenol release, microplate on GdpP

[3] = substrate: O=[N+]([O-])c1ccc(OP(=O)(O)Oc2ccc([N+](=O)[O-])cc2)cc1; assay: OD410 nitrophenol release, microplate; assay type: biochemical, Mycoplasmoides pneumoniae; details: MnCl2 0.1 mM, 100 mM Tris-HCl pH 8.3, 10 mM NaCl, 37 °C; remark: listed apart in the source
Text: OD410 nitrophenol release, microplate on MPN140 (NrnA)

## Nc1ncnc2c1ncn2[C@@H]1O[C@@H]2COP(=O)(O)O[C@H]3[C@@H](O)[C@H](n4cnc5c(N)ncnc54)O[C@@H]3COP(=O)(O)O[C@H]2[C@H]1O [c-di-AMP]
KtrC (MPN461)
  pull-down on c-di-AMP agarose, elution with free c-di-AMP, MS identification: c-di-AMP-binding proteins were eluted with free c-di-AMP

## MPN549 (PdeM) (Mycoplasmoides pneumoniae M129)
[1]
  Km: 600 µM

B1: GdpP (Bacillus subtilis subsp. subtilis str. 168) (protein)
chain: PIGIMLFNDQYYIEWANPFLSSCFNESTLVGRSLYDTCESVVPLIKQEVESETVTLNDRKFRVVIKRDERLLYFFDVTEQIQIEKLYENERTVLAYIFLDNYDDVTQGLDDQTRSTMNSQVTSLLNAWAQEYGIFLKRTSSERFIAVLNEHILTELENSKFSILDEVREKTSFDGVALTLSVGVGASVSSLKELGDLAQSSLDLALGRGGDQVAIKLPNGKVKFYGGKTNPMEKRTRVRARVISHALKEIVTESSNVIIMGHKFPDMDSIGAAIGILKVAQANNKDGFIVIDPNQIGSSVQRLIGEIKKYEELWSRFITPEEAMEISNDDTLLVIVDTHKPSLVMEERLVNKIEHIVVIDHHRRGEEFIRDPLLVYMEPYASSTAELVTELLEYQPKRLKINMIEATALLAGIIVDTKSFSLRTGSRTFDAASYLRAKGADTVLVQKFLKETVDSYIKRAKLIQHTVLYKDNIAIASLPENEEEYFDQVLIAQAADSLLSMSEVEASFAVARRDEQTVCISARSLGEVNVQIIMEALEGGGHLTNAATQLSGISVSEALERLKHAIDEYFEGGVQR
notes: cytoplasmic portion, residues 84-659, C-terminal Strep-tag, expressed in E. coli BL21(DE3), plasmid pGP2720
[2]
  Km: 1450 µM

B2: MPN140 (NrnA) (Mycoplasmoides pneumoniae M129) (protein)
chain: MNSQVHRKGSIAEAVSAIQAHDKIVIFHHIRPDGDCLGAQHGLARLIQTNFPHKQVFCVGDPKHNFPWLEMVFTPKEQITPELMQQALAVIVDANYKERIECRDLLDQNQFKAVLRIDHHPNEDDLNTTHNFVDASYIAAAEQVVDLAVQAKWKLSPPAATALYLGIYTDSNRFLYSNTSWRTLYLGSMLYRAQANIAKIHDELNHTSLKDIQFKQYVFKNFQTFQNVIYFVADKKFQKKLKVTPLECARVNILANIEQFHIWLFFIEEGKNHYRVEFRSNGINVREVALKYGGGGHIQASGAVLKSKRDIIRVVQDCQKQIAV
[3]
  Km: 1600 µM
  kcat: 3.67e-06 s⁻¹
